Assay results: the DeepSol protein solubility set

Assay: soluble on expression in E. coli; label from the status in PepcDB or PDB records

Sequence	soluble on expression in E. coli
MAENKLGRDIPRKYANQYGVFEGELAHIKSYKESSRQVKPVKPSDDKLLSSIHEAIEKTRLKDGMTISFHHHFREGDYVMNMVLDEIAKMGIKDISIAPSSIANVHEPLIDHIKNGVVTNITSSGLRDKVGAAISEGIMENPVIIRSHGGRARAIATDDIHIDVAFLGAPSSDAYGNANGTRGKTTCGSLGYAMIDAKYADQVVIVTDTLVPYPNTPISIPQTDVDYIVVVDAIGDPEGIAKGATRYTKNPKELLIAEYAAKVITSSPYYKEGFSFQTGTGGASLAVTRFMREQMIKDDIKANFALGGITNAMVELLEEGLVDKILDVQDFDHPSAVSLDRNAEKHYEIDANMYASPLSKGSVINQLDICVLSALEVDTNFNVNVMTGSDGVIRGASGGHCDTAFAAKMSLVISPLVRGRIPTFVDKVNTVITPGTSVDVVVTEVGIAINPNRPDLIEYFKDLKVPQLTIEELKEKAYAIVGNPQPIQYGDKIVALIEYRDGSLIDVVRNVLEHHHHHH	soluble
MFGYPGGAVLDIYDALHTVGGIDHVLVRHEQAAVHMADGLARATGDVGVVLVTSGPGATNAITGIATAYMDSIPLVILSGQVATSLIGYDAFQECDMVGISRPVVKHSFLVKQTEDIPLVLKKAFWLAASGRPGPVVVDLPKDILNPAKKMPYAWPETVSMRSYNPTTSGHKGQIKRALQTLASAKKPVVYVGGGAISAACYAPLRHIIETFNLPVVSSLMGLGAFPATHRQSLGMLGMHGTYEANMTMHNADVIFAVGVRFDDRTTNNLAKYCPNATVLHIDIDPTSISKTVNADIPVVGDARLVLEQMLELLAQDAPSQPQDDIRDWWQQIESWRARQCLKYDAESESIKPQAVIETLWRLTKGDAYVTSDVGQHQMFAALYYPFDKPRRWINSGGLGTMGFGLPAALGVKMALPKEMVVCVTGDGSIQMNIQELSTALQYELPVLVLNLNNRYLGMVKQWQDMIYSGRHSQSYMQSLPDFVRLAEAYGHVGLQINRPDELESKLSEALEHVRNNRLVFVDVTVDGSEHVYPMQIRGGGMDEMWLSKTERT	not soluble
MSLAEFSADLCLFDLDGTIVSTTVAAEKAWTKLCYEYGVDPSELFKHSHGARTQEVLRRFFPKLDDTDNKGVLALEKDIAHSYLDTVSLIPGAENLLLSLDVDTETQKKLPERKWAIVTSGSPYLAFSWFETILKNVGKPKVFITGFDVKNGKPDPEGYSRARDLLRQDLQLTGKQDLKYVVFEDAPVGIKAGKAMGAITVGITSSYDKSVLFDAGADYVVCDLTQVSVVKNNENGIVIQVNNPLTRAEGHHHHHH	not soluble
MTEYGGGEVYLLDLDSVVDGSALRMISSGGLRGRVLIHSALVDYLYSEAKRGRSAGYAGLAELSRLMDAGVGDVEIVVVEDDARVQPRDEGELKSVLRRYALRVGATLVTSDPVQARAARALGVSVLFTGRSRTGRIRIEE	not soluble
MGHHHHHHGGHMSLTISLAKGQKVDLTKTNPGLSKVVVGLGWDTNKYDGGHDFDLDSSVFLLDAAGKCASPNDFIFYNQLEGGNGSVVHSGDNLTGAGEGDDENVKVNLSAVPANIDKISFVITIHDAEARSQNFGQVSNAFVRIVNEETNEELIRYDLAEDFSIETAIIAGELYRHNGEWKFSAIGSGYQGGLARIATDYGLQVGEGGS	soluble
METFQKIKELVVVPERQSVILSVKQDLVNPLQDIAQQMAQYVTREYPLTLIDGVKLTPALEEQAFATYQTVQNLLTLKASVEDIAEALDVLEGGLTMQKVSNAEARAKAYITALNGISLWALLQAVKNLVRGEAKGMSTTFVPSCADLAQYCRDLENRLSGTAEKVFIAVENSRNLALGGKRISFMRIGKPCEELHGNLSSKAA	not soluble
MQGNTMYKFEVFKDKAGEFRFRFRASNGEIMFSSEGYKAKASVLNAIESIKKNSPGAETVDQTTATV	soluble
MSEQFVTISQHVRNPQEAAALFGVHDIHLKRIEEELGVSIVTRGETVNVSGTPQQVQLVNELLRHLLIVIRKGAAVSERDVLYAIQLAKKGALDGLVQLYDEEITKNAKGKPIRVKTLGQRYYVAAIEQYDLTFGIGPAGTGKTYLAVVMAVKALKNGSVKRIILTRPAVEAGESLGFLPGDLKEKVDPYLRPLYDALNDVLGAEYTQRLIERGTIEIAPLAYMRGRTLEDAFVILDEAQNTTPAQMKMFLTRLGFGSKMVITGDISQVDLPKGVESGLSVAKRILASIGGIAFVFLEQSDVVRHPLVAKIIDAYDEAGL	not soluble
SLSGNYLPRNTLVESLGHAMLKLSGWKIEGQLPALDKFVVIGAHHTSNWDFVAFLAAKFVLRLNARWFGKHTLFNGPLGGLMRRWGGIPIQRHLKLNTVDQAIQAFREHREFMLIIAPEGTRKKVDRWRMGFYHIARGAGVPVVPAALDYENRRIVIGEPFWPTGNEDADLCSLIGFYRPFIPKKPHYAFLGDEG	not soluble
MDRSFCDAGCGVGSLSLPLAQRGAQAVYASDISAKMVEEARERASQIPNLNNIQLEVSDLASLSGRYDTVICLDVLIHYPESDAAAMLSHLCSLAEQRVLVSFAPKSPVLNVLKRIGQFFPGASKTTRAYQHSETAIAAALAANGFQVQRRAFNKAPFYFSLLLEAVRTALEHHHHHH	soluble
MAHHHHHHMQKIQNAVRRRSRFFKWDVKWYSSKVKVEKKAGERHNDRHDSHDSHDSHKDIPQDSRPDTRVGQERKYNLWRWGCSGEGIFSSVKVGEKNKMPEKVPNFENAKIEKLSAGCDHAAFIVDGRIFTYGLNDKGQLGRSIEEENDQNKSYTLTPREVKTEGNVKFKDVCCGYKHTVAVDVNNNLYSWGWGGNFFKGANGLGHGNKQNLSTPKKVESFKSDDSEFVNICCGDQHSLVLTKNGKVYGCGRGEFGRLGKGNHGDQLFFEEIDFFISNNITVKGISCGHSFSAALSTDGEVYVWGRNDYGQLGIENSIGDLYSHEVYPNKVKYFDMENIKIKFIACGDNHMIACSENNVIFFWGSRAWLEPKAITLSPLYQNSVIKKNIDKIEAGGNTYYYSMLLSDNKLYSWGKYNSSCLALGDKKNHNEPTLVDSKLFNDEIVCDISCGRGRVLAKTLAAD	not soluble
MRLLVAFAVIYFISISPVCAENTASTINIPTPAIESPLASKSLLLDISLIGQEKLVTVGQHGHILLSNDGKKWQQANVPVQVTLTNVFFLNEQLGWAVGHDATILHSQDGGLNWQVQQYLPLLEKPLFDIYFKNPQQGIAVGAYGQVFRTNDGGSTWQNEFHQEILLADDVEYLNELKAEDEAAYLDEITFILPHFNRLVQDGGSLFLLGETGLLAKSDDFGLTWQQFDNFYQGSFFSLARTKTGNVLVAGLRGHVFRSLNHGSQWDEVPTNTTALLNDIVFANDERIFILGNNGMLLISTDDGESFSKIPQQDGKTLIAGVWFKGQLIAVSDVGIKVVDLSQELEHHHHHH	not soluble
MAHHHHHHMSFLPIRVCVLVCSYEGSDSELKEYEGEIVQTPQHYFTEEDSKEFVFTLEFVKKATAYRQIRQLVKSGAFDVFYNQCDGAIDEDKAGVEVVQALESFKVPFTGAISKYYELSKPEMKRMAHYCAVKTAPYAVLEAGDNVRELCAALHFPLIVKHISGYSSVGMDKSCKVYDMDALKERVARFIDQYQSALVEEFISGDEATVLVCADASQPGGIRVFPPVMVQFPEGEDFKHFHLKWETYEGMIWRLVSEDDPALPDIIHIARTAFLHMMGGVGYGRVDVRIDREKNTVVFLEINPNCGIMYPYGQEGSADWILRLTPEFKQKEFAKLQISEAIRIHKCKQPLFRCAYDPVREYYICATRDIPAGSIIFEGEGRLVRLCTKPYVKANWSEVEYNEFLHDAWPVGAEGHYYALWDLESSDWRAVNHSCDPNMGFCPNRSLNVHALRDIAKGEELTMDCRLFMDDTMPPFQCHCKTSICAGWIRGGVMRESHFFESYTERLIHREDKFITQLTRN	not soluble
GSHMDKIKLLKAAFLQYCRKDLGHAQMVVDELFSSHSDLDSDSELDRAVTQISVDLMDDYPASDPRWAESVPEEAPGFSNTSLIILHQLEDKMKAHSFLMDFIHQVGLFGRLGSFPVRGTPMATRLLLCEHAEKLSAAIVLKNHHSRLSDLVNTAILIALNKREYEIPSNLTPADVFFREVSQVDTICECLLEHEEQVLRDAPMDSIEWAEVVINVNNILKDMLQAASHYRQNRNSLYRREESLEKEPEYVPWTATSGPGGIRTVIIRQHEIVLKVAYPQADSNLRNIVTEQLVALIDCFLDGYVSQLKSVDKSSNRERYDNLEMEYLQKRSDLLSPLLSLGQYLWAASLAEKYCDFDILVQMCEQTDNQSRLQRYMTQFADQNFSDFLFRWYLEKGKRGKLLSQPISQHGQLANFLQAHEHLSWLHEINSQELEKAHATLLGLANMETRYFAKKKTLLGLSKLAALASDFSEDMLQEKIEEMAEQERFLLHQETLPEQLLAEKQLNLSAMPVLTAPQLIGLYICEENRRANEYDFKKALDLLEYIDEEEDININDLKLEILCKALQRDNWSSSDGKDDPIEVSKDSIFVKILQKLLKDGIQLSEYLPEVKDLLQADQLGSLKSNPYFEFVLKANYEYYVQGQI	soluble
MRHLKSFYVFHVAASSSSYTEAADKLNITHGAVSKQIKQLEQYLSQPLFLKEGRKSVLTAEGELLKTYTKTAFQTLETGVNTLIQEKHQHLEVSCEPTLTMRWLMPRLAAFNDEHRADVR	not soluble
TELKPLLIELGTEELPVNALPNLSRAFFEGVLAGLERRGIVVDHGEAKSLSTPRRLAVLLTAVAVEQPKQYRELFGPYLNTAFDTEGKPTKALEGFAAKCGVNWRTLERIRDTKGERFVHRVVVPGERTDALLPGILTEAIAGMPIPKPMRWGAHEYLFARPVHWLVMLFGQDVVEAEIMGVKAGRISRGHRFLYDKPVSLSGPQNYIDVLQAAYVLVDPAARRARIVAEIEAVARQVGGVARITEDNVAQVVNLVEWPSAVLCSFERVFLEVPQEALIQTMEVNQKFFPVLDSLGKLTEKFIGIANIESNDVAEVAKGYERVIRPRFSDAKFFFNEDLKQGLKAMGERLRTVTYHAKLGTLADKVARVLVLAEAIAPQIGVDPLLARRVALLSKNDLQSRMVNEFPELQGVAGHHYALISGELPEVAMAIEDAYRPRFSGDEIARSPLGKVLGLAERLDTLACGFAVGMKPTGNKDPFGLRRNALGLARTIIESRFDLDLKVLLDQASDWVAFATTIEQERHAQESVKQSKKEAAVKHSVPQVSDEKSARIEELYDFIVERLRGYYADKGIPTTHFNAVAELKPVS	not soluble
MSLKGTYEKSIHIVKKNKYKTIDVVFGNLKEGIPLAEKSINHGTRIIISRGGTYNMLKATYNIPIVEIKVDAYDIIKSYKEVKNSNEPFGIIGFNNVIYGFDIIEEILNKKITMIEIEKEEEIYDAIEKYRKKGINTYIGDTTVAHIVKRLNCKGILIESREENILRAIQQAEQILEATKDEQKREGHHHHHH	not soluble
MNEAEQELYEALVAICQTSGFLLLEELPTDLPDQPFVYLGDSKELPKPTKSAILGEIELIMHVYGALSERQQISTIKGTILRQATSNLKRTAHFNWGIKHQEVKAQMVKDTKQMKKTIWHAVLPLHMQFY	not soluble
MSLSPNDHCFSSHTETGPRKRNEDFSVYIDDLNSLLTCHHGRISVFGVFDGHMGTSASDYCSFKIFNYLVSNPHFPENIQIALKESFKQVNKGFLTIADVLHINAGTTAGVCVIDDKKITTANIGDTEIMFCKRNHKPLILSNKHSPNNEIEKQRIELAGGKVFYFHGWRVEGLLGVSRSIGDIALKKFVIDEADTNQIERSPDDEFVLIGCDGLWNVISYDFCADMVREYLYTNNYNGVDENGIKKPINKKDIARYLVDLALFKQSLDNVTVSIYFFSKEGHHHHHH	soluble
RKLTMNSNYKREDFVNETEVRWCPGCGDYAILAALQRVLPELGLPPEQHVFVSGIGCAGRLPYYMNTYGFHTIHGRATAVATGLKAMREDLCVWVITGDGDALSIGGNHLLHILRRNVNVNILLFNNQVYGLTKGQFSPTSQKGQVTKTSPKGVTSEPINPIMIALASGASFVARAVDKDPVHLASVLKKAYEHKGCSFVEIYQDCNIFNHGAFDDFAVKNNRAENTIILEDGQPLVFGAQKEKALQLDDEQFVQISIDEKTLYKHDEKNLISAMRLARLTFPDYPVPLGVYYQKDRERFTLSQEVKKRPEDLP	not soluble
